This data set deals with human cGAS (Homo sapiens, UniProt Q8N884 1-522). In words: EMSA; 1 uM DNA, 3 uM cGAS; EMSA: 1 uM DNA, 0-5 uM cGAS, 20 mM Tris-HCl pH 8.0 (4 C), 200 mM NaCl, on ice 30 min; 8% native PAGE in 25 mM Tris-HCl pH 8.5, 190 mM glycine; ethidium bromide. To be noted: protein: recombinant; tags: none (N-terminal His6-lipoyl domain removed with TEV protease); 20 bp duplex, unpaired G3 on all four ends (fork at both ends). (In EMSA bound probe runs differently from free probe, usually more slowly.)

The values that follow come from PMC10994814, “Enzymatic activity of cGAS in the presence of three types of DNAs: limited cGAS stimulation by single-stranded HIV-1 SL2 DNA”.

human cGAS, sequence (Q8N884 whole entry, the tested form may be a part): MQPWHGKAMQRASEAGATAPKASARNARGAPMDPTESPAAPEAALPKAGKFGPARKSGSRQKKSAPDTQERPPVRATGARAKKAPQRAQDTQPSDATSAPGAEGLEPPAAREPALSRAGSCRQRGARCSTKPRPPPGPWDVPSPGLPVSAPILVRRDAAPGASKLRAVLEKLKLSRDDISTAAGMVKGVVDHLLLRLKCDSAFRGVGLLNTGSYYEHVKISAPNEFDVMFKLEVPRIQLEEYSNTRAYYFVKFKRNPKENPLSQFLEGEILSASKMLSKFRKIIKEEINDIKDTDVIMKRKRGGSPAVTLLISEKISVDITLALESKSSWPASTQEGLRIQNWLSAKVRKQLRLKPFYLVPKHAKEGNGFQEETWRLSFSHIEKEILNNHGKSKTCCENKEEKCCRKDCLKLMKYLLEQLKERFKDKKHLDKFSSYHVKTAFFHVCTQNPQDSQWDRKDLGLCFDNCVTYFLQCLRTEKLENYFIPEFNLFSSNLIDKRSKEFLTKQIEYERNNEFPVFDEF

B1: G3 Y-form DNA (dsDNA)
DNA 1: GGGGAACTCCAGCAGGACCATTGGGG
DNA 2: GGGCAATGGTCCTGCTGGAGTTCGGG
Take B1: the binding signal was ~0 % unbound DNA at cGAS/DNA ratio 3.
